The target in assay [1] is T1, recombinant EGFRvIII extracellular region protein (UniProt P00533 25-645).
T1 construct: extracellular domain; also called rEGFRvIIIex; rEGFRvIII
In words: non-competitive ELISA, rEGFRvIIIex coated at 0.625 mg/L; antibody concentration at half-maximal OD. (In general: An ELISA detects its analyte on a solid surface through an enzyme-linked reagent.)
Protocol: (§1) After the coated buffer was removed, the plates were washed with PBS one time followed by adding with 350 μl of PBS containing 5% of skimmed milk powder and incubating overnight. Then the plates were washed with PBS twice. […] The plates were incubated with antibodies at 37° C. for 1 hour and washed thrice with PBS. Then the plates were added with 100 μL of HRP-labeled goat anti-mouse secondary antibodies, incubated at 37° C. for 1 hour and washed 5 times with PBS followed by incubation with ABTS substrate for 15 min. The absorbance value was determined at 405 nm with a microplate reader. The binding curve was drawn according to the absorbance values to obtain the antibody concentration at half-maximal OD value (OD50%).

In assay [2] the target is T1, recombinant EGFRvIII extracellular …. The assay is described as follows: non-competitive ELISA, rEGFRvIIIex coated at 5.0 mg/L; antibody concentration at half-maximal OD.
Protocol: as §1
For assay [3] the target is unchanged. The assay is described as follows: non-competitive ELISA, rEGFRvIIIex coated at 2.5 mg/L; antibody concentration at half-maximal OD.
Protocol: as §1
Assay [4] shares this target. The assay is described as follows: non-competitive ELISA, rEGFRvIIIex coated at 1.25 mg/L; antibody concentration at half-maximal OD.
Protocol: as §1
Assay [5] has the same target. In words: non-competitive ELISA on coated rEGFRvIIIex; derived from the affinity constant.
Protocol: as §1
(§2) The concentrations are substituted into the formula K=(n−1)/2 (nAb′−Ab) to calculate the affinity constant, wherein, Ab′ and Ab represent the OD50% antibody concentration (mol/L) when the concentrations of antigen is Ag′ and Ag, n=Ag/Ag′. Six K values were obtained by paired comparison and averaged to obtain the final value.
Assay [6] has the same target. The assay is described as follows: non-competitive ELISA on coated rEGFRvIIIex; average of six K values from paired coating concentrations.
Protocol: as §1, §2

Several values for one entry are separate records, joined by “and”; a condition that tells them apart may be missing. Identical values can stand only once.

B1: monoclonal antibody 12H23 (antibody, V domains shown)
VH: DVQLQESGPGLVKPSQSLSLTCTVTAYSVTSDYAWNWIRQFPGNKLEWMGYISYSGTTRYNPSLKSRISITRDTSKNQFFLQLNSMTAEDTATYYCSRQGRGFPYWGQGTLVTVSA
VL: DILMTQSPSSMSVSLGDTVSITCHASQDINSNIGWLQQKPGKSFKGLIYHGTNLEDGVPSRFSGSGSGADYSLTISSLESEDFADYYCVQYAQFPWTFGGGTKLEIKR
notes: also called murine monoclonal antibody 12H23; clone 12H23
In general, EC50 refers to the concentration that produces a half-maximal response. One may read the Kd as the constant that tells how readily two partners part at equilibrium. Regarding B1, the EC50 in assay [1] was 2 ng/mL; in assay [2] it was 0.003 µg/mL and 0.02 nM; in assay [3], 0.0025 µg/mL and 0.017 nM; in assay [4], 0.0023 µg/mL and 0.015 nM. Besides, the Kd in assay [5] was 0.026 nM. Moreover, in assay [6], the Ka was found to be 3.8e+10 M⁻¹.

Values taken from patent US20130039920A1 (SHANGHAI CANCER INSTITUTE, published 2013).
